± gives the standard error. For part of these data: Fewer inactive variants are shown than the library holds.
B1: glmS ribozyme (parent)
chain: AUAAAAGCGCCAGAACUACAGAAAUGUAGUUGACGAGGAGGAGGUUUAUCGAAUUUUCGGCGGAUGCCUCCAAA

Legend:
Settings in all cases: with glucosamine-6-phosphate
glucosamine-6-phosphate [1] = variants of: B1; test: kcat; higher = faster cleavage; RNA array
Outline: (§1)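 Barcoded ribozyme variants were transcribed in situ on sequenced MiSeq chips by E. coli RNA polymerase. At 37 °C, a hybridised Cy3 probe tracked them while glucosamine-6-phosphate (40 μM to 10 mM) in HEPES/KCl/Mg(OAc)2 buffer flowed in and tiles were imaged over ~14 h. Per-tile medians of signals normalised to baseline and to non-cleaving reference variants were fit to one- or two-exponential decays, giving kobs. kcat and KM came from weighted Michaelis–Menten fits across concentrations.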

glucosamine-6-phosphate [2] = variants of: B1; test: KM; higher = weaker cofactor use; RNA array
Outline: as §1

glucosamine-6-phosphate [3] = variants of: B1; test: self-cleavage kobs at 160 uM GlcN6P; higher = faster cleavage; RNA array
Outline: as §1

glucosamine-6-phosphate [4] = variants of: B1; test: self-cleavage kobs at 640 uM GlcN6P; higher = faster cleavage; RNA array
Outline: as §1

glucosamine-6-phosphate [5] = variants of: B1; test: self-cleavage kobs at 2500 uM GlcN6P; higher = faster cleavage; RNA array
Outline: as §1

glucosamine-6-phosphate [6] = variants of: B1; test: self-cleavage kobs at 10000 uM GlcN6P; higher = faster cleavage; RNA array
Outline: as §1

glucosamine-6-phosphate [7] = variants of: B1; test: self-cleavage kobs at 40 uM GlcN6P; higher = faster cleavage; RNA array
Outline: as §1

Variant | kcat (glucosamine-6-phosphate [1]) [s⁻¹] | KM (glucosamine-6-phosphate [2]) [µM] | self-cleavage kobs at 160 uM GlcN6P (glucosamine-6-phosphate [3]) [s⁻¹] | self-cleavage kobs at 640 uM GlcN6P (glucosamine-6-phosphate [4]) [s⁻¹] | self-cleavage kobs at 2500 uM GlcN6P (glucosamine-6-phosphate [5]) [s⁻¹] | self-cleavage kobs at 10000 uM GlcN6P (glucosamine-6-phosphate [6]) [s⁻¹] | self-cleavage kobs at 40 uM GlcN6P (glucosamine-6-phosphate [7]) [s⁻¹]
AUAAAAGCGCCAGAACUACAGAAAUGUAGUUGACGAGGAGGAGGUUUCUCGAAAUUUCGGCGGAUGCCUCCAAA [A48C U54A] | 0.000452 ± 4.8e-05 | 1720 ± 350 | 3.98e-05 ± 2e-05 | 0.000118 ± 2.2e-05 | 0.000342 ± 8.9e-05 | 0.000371 ± 6.6e-05 | 
AUAAAAGCGCCAGAACUACAGAAAUGUAGUUGACGAGGAGGAGGUUUCUCGAACUUUCGGCGGAUGCCUCCAAA [A48C U54C] | 0.00042 ± 0.00013 |  |  | 9.71e-05 ± 2.4e-05 | 0.000224 ± 6e-05 | 0.000316 ± 9.5e-05 | 
AUAAAAGCGCCAGAACUACAGAAAUGUAGUUGACGAGGAGGAGGUUUGUAGAAUUUUCGGCGAAUGCCUCCAAA [A48G C50A G63A] | < 1e-05 |  | < 1e-05 |  |  | < 1e-05 | 
AUAAAAGCGCCAGAACUACAGAAAUGUAGUUGACGAGGAGGAGGUUUGUCGAAUUUUCGGCGGAUGCCUCUAAA [A48G C71U] | 8.1e-05 ± 1.3e-05 |  |  | 4.86e-05 ± 8.2e-06 | 0.000101 ± 1.1e-05 | 7.03e-05 ± 6.3e-06 | 
AUAAAAGCGCCAGAACUACAGAAAUGUAGUUGACGAGGAGGAGGUUUGUCGAAUUUUCGGCGGAUGCCUCAAAA [A48G C71A] | 2.26e-05 ± 4.7e-06 |  |  |  | 2.93e-05 ± 1.3e-05 |  | 
AUAAAAGCGCCAGAACUACAGAAAUGUAGUUGACGAGGAGGAGGUUUCUCGAAUUCUCGGCGGAUGCCUCCAAA [A48C U56C] | 5.47e-05 ± 1.8e-06 | 357 ± 160 |  | < 1e-05 | 4.83e-05 ± 1.6e-05 | 5.27e-05 ± 1.2e-05 | 
AUAAAAGCGCCAGAACUACAGAAAUGUAGUUGACGAGGAGGAGGUUUGUCGAAUUCUCGGCGGAUGCCUCCAAA [A48G U56C] | 5.09e-05 ± 1.7e-06 | 3700 ± 360 |  |  |  | 3.71e-05 ± 1.1e-05 | 
AUAAAAGCGCCAGAACUACAGAAAUGUAGUUGACGAGGAGGAGGUUUGUCGAAUUGUCGGCGGAUGCCUCCAAA [A48G U56G] | 7.92e-05 ± 1.9e-06 | 696 ± 110 |  |  | 6.4e-05 ± 1.3e-05 | 7.35e-05 ± 8.9e-06 | < 1e-05
AUAAAAGCGCCAGAACUACAGAAAUGUAGUUGACGAGGAGGAGGUUUCUCGAAUAUUCGGCGGAUGCCUCCAAA [A48C U55A] | 0.000411 ± 0.0001 | 2110 ± 920 |  | 8.73e-05 ± 1.8e-05 | 0.000276 ± 4.6e-05 | 0.000272 ± 8.7e-05 | 
AUAAAAGCGCCAGAACUACAGAAAUGUAGUUGACGAGGAGGAGGUUUCUCGAAUCUUCGGCGGAUGCCUCCAAA [A48C U55C] | 0.000419 ± 0.00015 |  |  | 6.73e-05 ± 1.2e-05 | 0.000327 ± 4.9e-05 | 0.00029 ± 4.9e-05 | 
AUAAAAGCGCCAGAACUACAGAAAUGUAGUUGACGAGGAGGAGGUUUGUCGAAUUUUCGGCGGAUGCCUGCAAA [A48G C70G] | 6.2e-05 ± 1.1e-05 |  |  | 8.57e-05 ± 1.8e-05 | 7.26e-05 ± 1.6e-05 | 5.25e-05 ± 9.4e-06 | 
AUAAAAGCGCCAGAACUACAGAAAUGUAGUUGACGAGGAGGAGGUUUGUCGAAUUUUCGGCGGAUGCUUCCAAA [A48G C68U] | 0.000161 ± 4.8e-05 |  | < 1e-05 |  |  | 4.18e-05 ± 8.3e-06 | 
AUAAAAGCGCCAGAACUACAGAAAUGUAGUUGACGAGGAGGAGGUUUGUCGAAUUUUCGGCGGAGGCCUCCAAA [A48G U65G] | 8.76e-05 ± 3.5e-05 |  | < 1e-05 |  |  | 3.81e-05 ± 1.3e-05 | < 1e-05
AUAAAAGCGCCAGAACUACAGAAAUGUAGUUGACGAGGAGGAGGUUUGUCGAAUUUUCGGCGGAAGCCUCCAAA [A48G U65A] | < 1e-05 |  | < 1e-05 |  |  |  | 
AUAAAAGCGCCAGAACUACAGAAAUGUAGUUGACGAGGAGGAGGUUUGUCGAAUUUUUGGCGGAUGCCUCCAAA [A48G C58U] | 1.71e-05 ± 2.1e-06 |  |  |  |  |  | 
AUAAAAGCGCCAGAACUACAGAAAUGUAGUUGACGAGGAGGAGGUUUGUCGAACUUUCGGCGGAUGCCUCCAAA [A48G U54C] | 0.000123 ± 1.5e-05 | 1310 ± 500 |  | 3.59e-05 ± 1.1e-05 | 0.000101 ± 1.8e-05 | 0.000104 ± 1.3e-05 | 
AUAAAAGCGCCAGAACUACAGAAAUGUAGUUGACGAGGAGGAGGUUUGUCGAAUUUUCGGCGGAUGCCCCCAAA [A48G U69C] | 9.33e-05 ± 2.9e-05 |  |  |  | 9.27e-05 ± 3.5e-05 | 7.34e-05 ± 2.5e-05 | 
AUAAAAGCGCCAGAACUACAGAAAUGUAGUUGACGAGGAGGAGGUUUGUCGAAUUUUCGGUGGAUGCCUCCAAA [A48G C61U] | 3e-05 ± 9.3e-06 |  |  |  |  |  | < 1e-05
AUAAAAGCGCCAGAACUACAGAAAUGUAGUUGACGAGGAGGAGGUUUCUCGAAUUUUCGGCGGAUGCCUCUAAA [A48C C71U] | 0.000393 ± 1.6e-05 | 5220 ± 390 |  | 4.42e-05 ± 7.8e-06 | 0.000123 ± 1.7e-05 | 0.00026 ± 2.4e-05 | 
AUAAAAGCGCCAGAACUACAGAAAUGUAGUUGACGAGGAGGAGGUUUGUCGAAUUUUCGGCGGAUGGCUCCAAA [A48G C67G] | 5.64e-05 ± 1.8e-05 |  | < 1e-05 | 3.36e-05 ± 1.6e-05 | 7.99e-05 ± 1.9e-05 | 4.41e-05 ± 1.4e-05 | 

Source: the supplement of paper PMC7125110
